Measurements from patent US20240269256A1 (HDT BIO, published 2024).

Target: enterovirus D68 clade B2 virus (enterovirus D68)
Assay: cell-based or functional assay

B1: AAA_G12 anti-EV-D68 VHH (recombinant VHH G12) (VHH)
VHH: QVQLVESGGGLVQPGGSLRLSCLASGITFTVYRMAWYRQAPGRQRDLVAEVAPGGGTVAANSVKGRFTISRDSAKNTVDLQMNDLKPDDTAVYYCYARNLFTSGEYWGQGTQVTVSS
50% inhibitory concentrations (IC50), neutralization by real time cell analysis (RTCA) assay: ~1 nM
